From patent US20240252614A1 (Pfizer, published 2024)

Assays:
hMPV053 = target: T1, hMPV053 (hMPV A, UniProt Q6WB98 19-102); assay: BLI, no stress
T1 construct: L110P
Description: (§1) The OCTET HTX (Sartorius, Gottingen, Germany) instrument was used to evaluate the expression and conformational integrity for each mutant. All measurements were conducted at 30° C. temperature in 96-well black plates (Corning, Corning, NY) with a final volume of 240 μL per well at a constant agitation rate of 1000 RPM.
(§2) Conformation integrity of hMPV A F protein mutants were evaluated by thermal stress experiments. Crude cell culture supernatants were normalized based on the results of the titer quantitation and then incubated for 1 hour at room temperature and two higher temperatures. […] Anti-Human IgG Fc Capture (AHC) biosensors were first equilibrated in PB before being dipped into more PB to establish the initial baseline. […] The mAb-bound biosensors were then dipped into the thermal stressed cell culture supernatants for 5 minutes. The kinetics analysis was done by OCTET data analysis software (version 12.0, Sartorius) based on curve fitting of the entire associate step.

hMPV075 = target: T2, hMPV075 (hMPV A, UniProt Q6WB98 19-102); assay: BLI, no stress
T2 construct: L473F
Description: as §1, §2

hMPV058 = target: T3, hMPV058 (hMPV A, UniProt Q6WB98 19-102); assay: BLI, no stress
T3 construct: L187P
Description: as §1, §2

hMPV069 = target: T4, hMPV069 (hMPV A, UniProt Q6WB98 19-102); assay: BLI, no stress
T4 construct: S291I
Description: as §1, §2

hMPV045 = target: T5, hMPV045 (hMPV A, UniProt Q6WB98 19-102); assay: BLI, no stress
T5 construct: I137C-A159C
Description: as §1, §2

hMPV050 = target: T6, hMPV050 (hMPV A, UniProt Q6WB98 19-102); assay: BLI, no stress
T6 construct: V148C-L158C
Description: as §1, §2

hMPV077 = target: T7, hMPV077 (hMPV A, UniProt Q6WB98 19-102); assay: BLI, no stress
T7 construct: Q476C, S477C
Description: as §1, §2

hMPV048 = target: T8, hMPV048 (hMPV A, UniProt Q6WB98 19-102); assay: BLI, no stress
T8 construct: L141C-A161C
Description: as §1, §2

hMPV067 = target: T9, hMPV067 (hMPV A, UniProt Q6WB98 19-102); assay: BLI, no stress
T9 construct: S149T
Description: as §1, §2

hMPV A F WT Control = hMPV A F WT Control (hMPV A, UniProt Q6WB98 19-102); assay: BLI, no stress
Description: as §1, §2

hMPV046 = target: T10, hMPV046 (hMPV A, UniProt Q6WB98 19-102); assay: BLI, no stress
T10 construct: A140C-S149C
Description: as §1, §2

hMPV062 = target: T11, hMPV062 (hMPV A, UniProt Q6WB98 19-102); assay: BLI, no stress
T11 construct: G121A
Description: as §1, §2

hMPV132 = target: T12, hMPV132 (hMPV B, UniProt Q6WB98 19-102); assay: BLI, 63C stress
T12 construct: L141C-A161C, S149T, G239A, T411C-Q434C, A459P
Description: (§3) Conformation integrity of hMPV B F protein mutants were evaluated by a thermal stress experiment. Crude cell culture supernatants were normalized based on the results of the titer quantitation and then incubated for 1 hour at room temperature and two higher temperatures. For the testing of hMPV B single mutants, the two temperatures were 53° C. and 56° C. After the incubation, the protein mutants were probed with prefusion specific monoclonal antibody hMPV-2 by OCTET HTX. Anti-Human IgG Fc Capture (AHC) biosensors were first equilibrated in PB before being dipped into more PB for to establish the initial baseline. Biosensors were incubated with hMPV-2 before being equilibrated in PB to establish the experimental baseline. The mAb-bound biosensors were then dipped into the thermal stresses cell culture supernatants for 5 minutes.

hMPV123 = target: T13, hMPV123 (hMPV B, UniProt Q6WB98 19-102); assay: BLI, 63C stress
T13 construct: A140C-S149C, G239A, T411C-Q434C
Description: as §3

hMPV136 = target: T14, hMPV136 (hMPV B, UniProt Q6WB98 19-102); assay: BLI, 63C stress
T14 construct: A140C-S149C, A459P
Description: as §3

hMPV B F WT Control = hMPV B F WT Control (hMPV B, UniProt Q6WB98 19-102); assay: BLI, 63C stress
Description: as §3

hMPV134 = target: T15, hMPV134 (hMPV B, UniProt Q6WB98 19-102); assay: BLI, 63C stress
T15 construct: T49I, L141C-A161C, S149T, G239A, T365I, T411C-Q434C, A459P
Description: as §3

hMPV126 = target: T16, hMPV126 (hMPV B, UniProt Q6WB98 19-102); assay: BLI, 63C stress
T16 construct: T49I, T150C-R156C, G239A, A459P
Description: as §3

hMPV119 = target: T17, hMPV119 (hMPV B, UniProt Q6WB98 19-102); assay: BLI, 63C stress
T17 construct: T49I, T150C-R156C, A459P
Description: as §3

hMPV120 = target: T18, hMPV120 (hMPV B, UniProt Q6WB98 19-102); assay: BLI, 63C stress
T18 construct: A140C-S149C, T411C-Q434C
Description: as §3

hMPV130 = target: T19, hMPV130 (hMPV B, UniProt Q6WB98 19-102); assay: BLI, 63C stress
T19 construct: L141C-A161C, G239A, T411C-Q434C, A459P
Description: as §3

hMPV133 = target: T20, hMPV133 (hMPV B, UniProt Q6WB98 19-102); assay: BLI, 63C stress
T20 construct: T49I, L141C-A161C, S149T, G239A, T411C-Q434C, A459P
Description: as §3

hMPV139 = target: T21, hMPV139 (hMPV B, UniProt Q6WB98 19-102); assay: BLI, 63C stress
T21 construct: T49I, L141C-A161C, T411C-Q434C
Description: as §3

hMPV117 = target: T22, hMPV117 (hMPV B, UniProt Q6WB98 19-102); assay: BLI, 63C stress
T22 construct: T150C-R156C, A459P
Description: as §3

hMPV135 = target: T23, hMPV135 (hMPV B, UniProt Q6WB98 19-102); assay: BLI, 63C stress
T23 construct: T49I, S149T, A459P
Description: as §3

hMPV128 = target: T24, hMPV128 (hMPV B, UniProt Q6WB98 19-102); assay: BLI, 63C stress
T24 construct: T49I, A140C-S149C, G239A, T411C-Q434C, A459P
Description: as §3

hMPV138 = target: T25, hMPV138 (hMPV B, UniProt Q6WB98 19-102); assay: BLI, 63C stress
T25 construct: T49I, A140C-S149C, A459P
Description: as §3

[1] = target: F protein of hMPV A virus (human metapneumovirus A); assay: cell-based or functional assay
[2] = target: F protein of hMPV B virus (human metapneumovirus B); assay: cell-based or functional assay
PIV1045 = target: T26, PIV1045 (PIV1); assay: BLI, no stress;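 note: binding of thermally stressed PIV1 F mutant supernatant to mAb on AHC biosensors for 5 min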
T26 construct: Q92L, G134A
Description: (§4) All measurements were conducted at 30° C. temperature in 96-well black plates (Corning, Corning, NY) with a final volume of 240 μL per well at a constant agitation rate of 1000 RPM.
(§5) Conformation integrity of PIV1 F protein mutants were evaluated by a thermal stress experiment. Crude cell culture supernatants were normalized based on the results of the titer quantitation and then incubated for 1 hour at room temperature and two higher temperatures. For the initial testing of PIV1 mutants, the two temperatures were 50° C. and 53° C. […] Anti-Human IgG Fc Capture (AHC) biosensors were first equilibrated in PB for before being dipped into more PB to establish the initial baseline. […] The mAb-bound biosensors were then dipped into the thermal stresses cell culture supernatants for 5 minutes.

PIV1042 = target: T27, PIV1042 (PIV1); assay: BLI, no stress;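 note: binding of thermally stressed PIV1 F mutant supernatant to mAb on AHC biosensors for 5 min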
T27 construct: Q92A
Description: as §4, §5

PIV1044 = target: T28, PIV1044 (PIV1); assay: BLI, no stress;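 note: binding of thermally stressed PIV1 F mutant supernatant to mAb on AHC biosensors for 5 min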
T28 construct: Q92L
Description: as §4, §5

PIV1046 = target: T29, PIV1046 (PIV1); assay: BLI, no stress;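 note: binding of thermally stressed PIV1 F mutant supernatant to mAb on AHC biosensors for 5 min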
T29 construct: A466V, S473V
Description: as §4, §5

PIV1043 = target: T30, PIV1043 (PIV1); assay: BLI, no stress
T30 construct: Q92A, G134A
Description: as §4, §5

F protein of hPIV1 virus = F protein of hPIV1 virus (human parainfluenza virus 1); assay: cell-based or functional assay

B1: hMPV-2 mAb (antibody, V domains shown)
VH: QVQLQQSGAEVKKPGASVKVSCKASGYTFTSYGISWVRQAPGQGLEWMGWISGYNGNTNYAQTFQGTFTMTTDTSTSTAYMELRRLRSGDTAVYYCARDRYYASGSYNGMDVWGQGTTVTVSS
VL: QSALTQPPSASGAPGQRVTVSCSGSSSNVGSSSVYWYQQLPGTAPKLLIYRNNQRPSGVPDRFSGSKSGTSASLAISGLRSEDEADYYCAAWDDSLSGWVFGGGTKLTVLG
notes: human IgG1
With B1 the “Response Shift” value (hMPV053) was 0.717 nm, the “Response Shift” value (hMPV075) was 0.802 nm and the “Response Shift” value (hMPV058) was 0.709 nm. The “Response Shift” value (hMPV069) was 0.747 nm, the “Response Shift” value (hMPV045) was 0.582 nm and the “Response Shift” value (hMPV050) was 0.669 nm. The “Response Shift” value (hMPV077) was 0.751 nm, the “Response Shift” value (hMPV048) was 0.585 nm and the “Response Shift” value (hMPV067) was 0.677 nm. For the same binder, the “Response Shift” value (hMPV A F WT Control) was 0.782 nm, the “Response Shift” value (hMPV046) was 0.573 nm and the “Response Shift” value (hMPV062) was 0.774 nm. For the same binder, the “Response Shift” value (hMPV132) was 0.606 nm, the “Response Shift” value (hMPV123) was 0.549 nm and the “Response Shift” value (hMPV136) was -0.027 nm. For the same binder, the “Response Shift” value (hMPV B F WT Control) was 0.017 nm, the “Response Shift” value (hMPV134) was 0.733 nm and the “Response Shift” value (hMPV126) was -0.075 nm. The “Response Shift” value (hMPV119) was 0.017 nm, the “Response Shift” value (hMPV120) was 0.502 nm and the “Response Shift” value (hMPV130) was 0.079 nm. The “Response Shift” value (hMPV133) was 0.62 nm, the “Response Shift” value (hMPV139) was 0.456 nm and the “Response Shift” value (hMPV117) was 0 nm. For the same binder, the “Response Shift” value (hMPV135) was -0.015 nm, the “Response Shift” value (hMPV128) was 0.746 nm and the “Response Shift” value (hMPV138) was 0.156 nm. For the same binder, the “IC50, virus neutralization assay” value [1] was 20 µg/mL and the “IC50, virus neutralization assay” value [2] was 23.2 µg/mL.

B2: PIV1-8 mAb (antibody, V domains shown)
VH: QVQLVQSGAEVKKPGSSVKVSCEASGGTFSNYVISWVRQAPGQGLEWMGGIIPVFATAKYAQKFQGRVTIIADQSTNTAYLELSSLRSDDTAVYFCASVDSGGTWWDAFAIWGQGTMVTVSS
VL: QAVVTQPRSVSGSPGQAVTISCTGTSSDVGGYNYVSWYQHHPGKAPKLIIYDVTKRPSGVPDRFSGSKSGNTASLTISGLQTEYEADYYCCSYAGSYTLVFGGGTKLTVLG
notes: human IgG1; also called hPIV1-8 mAb; hPIV1-8
B2 was tested, and the “Response Shift” value (PIV1045) was 0.635 nm, the “Response Shift” value (PIV1042) was 0.192 nm and the “Response Shift” value (PIV1044) was 0.162 nm. The “Response Shift” value (PIV1046) was 0.584 nm, the “Response Shift” value (PIV1043) was 0.725 nm and the “IC50, virus neutralization assay” value (F protein of hPIV1 virus) was 0.005 µg/mL.
